Data from the nanobody polyreactivity screen of Harvey et al. (2022).

Test: yeast display, Sf9 membrane polyspecificity reagent, FACS + sequencing; frameworks hold sequencing errors
Outline: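 A synthetic nanobody library was expressed on Saccharomyces cerevisiae BJ5465 by galactose induction for 36–48 hours. The library was stained for 1 hour at 4 °C with 10% biotinylated, detergent-solubilized Sf9 membrane reagent and enriched with streptavidin microbeads before FACS. Low and high (top ~1%) gates were set on anti-HA fluorescence for expression and streptavidin fluorescence for reagent binding, and each polyreactivity label reflects the gate of origin.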

Row | Sequence | polyreactivity (PSR sort gate)
1 | QVQLVESGGGLVQAGGSLRLSCAASGSTFGVNAMGWYRQAPGKERELVAGISSGTSTYYADSVKGRFTISRDNAKNTVYLQMNSLKPEDTAVYYCATRWSYRYGYWGQGTQVTVSS | high polyreactivity
2 | QVQLVESGGGLVQAGGSLRLSCAASGRIIWPYAIGWYRQAPGKERELFATITSGGRTNYADSVKGRFTISRDNAKNTVYLQMNSLKPEDTAVYYCIADHWLYYGAGYDYWGQGTQVTVSS | low polyreactivity
3 | QVQLVESGGALVQAGGSLRLNCAASGRTFGYNAMGWYRQAPGKERELVAAITIGGSTNYADSVKWRFTISRDNAKNNGYLQMNSLLPEDTAVYYCAAYDTLLYWVEFYYWGQGTQVTVSS | low polyreactivity
4 | QVQLVESGGGLVQAGGSLRLSCAASGSIFTHYPMGWYRQAPGKERELVAAISRRGGSTYYADSVKGRFTISRDNAKNTVYLQMNSLKPEDTAVYYCAKSPDTAKEYDYWGQGTQVTVSS | high polyreactivity
5 | QVQLVESGGGLVQAGGSLRLSCAASGRIFIDYAMGWSRQAHGKERELVAAIDSGGNSNYADSVKGRFTISRDNAKNSVYLQKNSLKPEDTAVYYCNASGVTTDIAGVYWGQGTQVSVSS | low polyreactivity
6 | QVQLVESGGGLVQAGGSLRLSCAASGFTFRAYAMGWYRPAPAKERELVAAISTGGGSTYYADSVKGRFTISRDIAKHTVYLQLNSLKPEDTAVYYCNALPQRRYYYWGQGTQVTVSS | high polyreactivity
7 | QVQLVESVGGLVQAGGSLPLSGAASGSILGFNAMGWSRQAPGKDRELVASITTSGGSTYFADSVKGRFTISRDNAKNTVYLQMNSLKPEDTAVYYCAAYRRYQFVTYYYWGQGTQVTVSS | high polyreactivity
8 | QVQLVESGGGLVQAGGSLRFSCAASGIIFRIYAMGWYRQAPGKEREFVAAISGSGDSTYYADSVKGRFTISRDNAKNTVNLQMNSLKPEDSAVYYCAADWTLVYYHEDYWGQGSQVTVSS | low polyreactivity
9 | QVQLVESGGRLVQAGGSLRLSCAASGITFLKYALGWYRQAPGKERELVAAISRRGGSTYYADSVKGRFTISRDNAMNTVYLEMNSLKPSDTAVYYCAARTVRGTWSQNDYCGQGTQVTVSS | low polyreactivity
10 | QVQLVESGGGLVQAGGSLRLSCAASGYTFHGYAMGWYRQAPGKERELVAVITQRGGSTSYADSVKGRFTISRDNAKNTVYLQMNSLKPEDTAVYYCNADGPSTPWVDYGYWGQGTQVTVSS | low polyreactivity
11 | QVQLVESGGGLVQAGGSLRLSCAASGRIFGDYAMGWYRQAPGKERELVADITWSGGSTYYADSVKGRVTISRDNAKHTVYLQMNSLKPEDTAVYYCNADVWFYYTFDYWGQGTQVTVSS | low polyreactivity
12 | QVQLQESGGGLVQAGGSLRLSCASSGSIFWVWRMGWYCQAPGKEREFVAGIGLGATTNYADSVKGRFTISRDNAKNTVYLQMNSLKPGDTAVYYCATVGYYKGNQVLPAKDGDSWGQGTQVTVSS | high polyreactivity
13 | QVQRVESGGGLVQAGGSLRLSCAASGGIFAVNVMGWYRPAPGKERELVAAITSTGSTYYADSVKGRFTISRDNAKNTVYLQMNSLKPEDTAVYYCAADYVYYDSYDDTVFGYEYWGQGTQVTVSS | high polyreactivity
14 | QVQLVESGGGLVQAGGSLRLSCAASGSIFYHNAMGWYRQAPGKERELVATISWRSASTYYADSVKGRFRISRDNAKNTVYLQMNSLKPEDTAVYYCAAKLQYRQYYYRYGYDYWGQGTQVTVSS | high polyreactivity
15 | QVQLVESGGGLVQAGGSLRLSCAASGYTFVNYAMGWYRQAPGKEREFVAAISRSGGSTYYADSVKGRFTISRDNAKNTVYLQMNSLKPEDSAVYYCALRGYPPYKYYYWGQGTQVTVSS | high polyreactivity
16 | QVLLQESGGGLVQAGGSLRQSCAASGNIFSAGGMGWYRQAPVNERELVAGIGTGTSTNYADSVKGRFTISRDNAKNTVYLQMNSLKPEDTAVYFCAAAFYSGLSHWYWGQGTQVTVSS | low polyreactivity
17 | QVQLVESGGGLVQAGGSLRLSCAASGSTFRVYAMGWYRQAPGKERELVANISWGGGRTYYADSVKGRFTISRDNAKNTVYLQMNSLKPEDTAVYYCAADIAWYTHYHRIFDYWGQGTQVTVSS | low polyreactivity
18 | QVQLVESGGGLVQAGGSLRLSCAASGRTFGYYAMGWYRQAPGKERELVAAITDSGDITYYADSVKGRFTISRDNAKNTVYLQMNSLKPEDTAVYYCAADSYEFWSEVYTGESWGQGTQVTVSS | low polyreactivity
19 | QVQLVESGGGLVQAGGSLRLSCAASGSTFWPYAMGWSRQAPGKERELVARINSGGNTNYADSVKGRFTISRDNAKNTVYLQMNSLKPEDTAVYYCAVRSLYEPRVYYRWVVVDGNYLGQGTQVTVSS | low polyreactivity
20 | QVQLVESGGGLVQAGGSLRLSCAASGIIFAFSAMGWYRQAPGKERELVAGITSGGDTYYADSVKGRFTISRDNAKNTVYLQMNSLKPEDTAVYYCAADVQYPNRAGWLYWYATNFDYWGQGTQVTVSS | high polyreactivity
21 | QVQLVESGGGLVQAGGSLRLSCAASGSIFSWYAMGWYRQAPGKERELVAAIRRGGSTYYADSVKGRFTISRDNAKNTVYLQMNSLKPEDTAVYYCAARVYTAASRGRGDYWGQGTQVTVSS | low polyreactivity
22 | QVQLVESGGGLVQAGGSLRLSCAASGFTFRVNAMGWYRQAPGKERELVAAISWTGGSTYYADSVKGRFTISRDNAKNTVYLQMNSLKPEDTAVYYCATRFGGRYNEFGFWGQGTQVTVSS | low polyreactivity

Row | Sequence | polyreactivity (PSR sort gate)
23 | QVQLVESGGGLVQAGGSLRLSCAASGITFDVYAMGWYRQAPGKERELVAAISGSGGSTYYADSVKGRFTISRDNAKNTVYLQMNSLKPEDTAVYYCAASGPDGQYLWYDYWGQGTQVTVSS | high polyreactivity
24 | QVQLVESGGGLVQAGGSLRLSCAASGRIFSYNAMGWYRQAPGKERELVAAIRVRGGSTYYADSVKGRFTLSRDNAKNTVYLQMNSLKPEDTAVYYCNASDYKISATNAVVRYYYWGQGTQVTVSS | high polyreactivity
25 | QVQLEESGGGLVQAGGSLRLSCAASGRIFPTYVMGWYRQAPGKERELVAAITSIDGRTYYADSVKGRFTISRDNAKNTVYLQMNSLKPEDTAVYYCAADYDYLSISEGYYWGQGTQVTVSS | low polyreactivity
26 | QVQLVESGGGLVQAGGSLRLSCAASGRIFSPYAMGWYRQAPGKERELVAAISSSGTYYADSVKGRFTISRDNAKNTVYLQMNSLKPEDTAVYYCNARRYWGRYDYWGQGTQVTVSS | high polyreactivity
27 | QVQLVESRRGLVPAGGSLRLSCARCGITVPAYAMGWYRQAPGKERELVASISRRGGSTYYADSVKGRFTISRDNAKNTVYLQINSLKPVDTAVYYCNADIKQRSDRYDYWGQGTQVTVSS | high polyreactivity
28 | QVQLVESGGGLVQAGGSHGLSCAASGRTFYYYAMGWYRPAPGKERELVAAITSGGRTYYADSVKGRFTISRDNAKNTDYLQMNRLKPEDTAVYYCAADLSDPDWSRYQWDMDYWGQGTQVTVSS | low polyreactivity
29 | QVQLVESGGGLVQAGGSLRLSCAASGRIFIYNAMGWYRQATGKERELVAAISYRGGSTYYADSVKGRFTISRDNAKNTVYLQMNSLKPEDTAVYYCNAKIVQYGAHNYWGQGTQVTVSS | high polyreactivity
30 | QVQLVESGGGLVQAGGSLRLSCAASGFTFWYYAMGWYRQAPGKERELVATISRGGGSTYYADSVKGRFTISRDNAKNTVYLQMNSLKPEDTAVYYCNAALTRVSRFWGGDYYYWGQGTQVTVSS | high polyreactivity
31 | QVQLVESGGGLVQAGGSLRLSCAASGRTFESNAMGWYRQAPGKERELVAGITSGGITNYADSVKGRFTISRDNAKNTVYLQMISLKPEDTAVYYCEFYYWGQGTQVTVSS | low polyreactivity
32 | QVQLVESGGGLVQAGGSLRLSCAASGSIFSVNTMGGYRQAPGKERELVADISSGDSTYYADSVKGRFTISRDNAKNTVYLQMNSLKPEDTAVYFCNADVYSWVSGKEGDYWGQGTQVTVSS | low polyreactivity
33 | QVQLVESGGGLVQAGGSLRLSCAASGSIFNYYAMGWYRQAPGKEREFVAAISWRGGSTYYADSVKGRFTISRDNAKNTVYLQMNRLKPEDTAVYYCNARVYGVYRRRVNYWGQGTQVTVSS | high polyreactivity
34 | QVQLVESGGGLVQAGVSLRLSCASSGFTFHYYAMGWYRQAPGKERELVAAISWSSGRTYYADSVKGRFTISRDNAKNTVYLQMNSLKPEDTAVYYCAASSYNRGDYWGQGTQVTVSS | low polyreactivity
35 | QVQLVESGGGLVQAGGSLRLSGAASGFTFGRNAMGGYRQAPGKEREFVAAISKSATSKYYADSVKGRFTISRDNAKNTVYLQMNSLKPEDTSVYYCARTNYAKRWDFDYWGQGTQVTVSS | low polyreactivity
36 | QVQLVESGGGLVQAGGSLRLSCAASGMIFRRYAMGWYRQAPGKERELVAAITSGGSTYYADSVKGRFTISRDNAKKTVYLQMNSLKAEDTAVYSCAAVFYYATYSKKFEYWGQGTQVTVSS | high polyreactivity
37 | QVQLVESGGGLLQAGGILRLSCAASGFTFKYYVMGWYRQAPGKERELDAAITSSGSTYYADSVKGRFTISRDNAKNTVYLQINRLKPEDSAVYYCAAEGQSWQRWRYNYWGQGTQVTVSS | high polyreactivity
38 | QVQLVESGGGLVQAGGSLRLSCAASGSIFEGNGMGWYIQAPGKERELVAAITFRSGSTYYADSVKGRFTISLDNAKNTVYLQMNSLKPEDTAVYYCAADEYYQVSAYDYWGQGTQVTVSS | low polyreactivity
39 | QVQLVESGGGLVQAGGSLRLSCAASGSIFTAYAMGWYRQAPGKERELVAAISYGGGSTYYADSVKGRFTISRDNAKNTVYLQMNSLKPEDTAVYYCAAASSGEYGYWGQGTLVTVSS | low polyreactivity
40 | QVQLVESGGGLVQAGGSLRLSSASSGSIFESNALGWYRQAPGKEREFVAAIDQNDGSTNYADSVKGRFTISRDNAKNTVYLQMYSLNPEDTAVYYCAASPGTASYDYWGQGTQVTVSS | low polyreactivity
41 | QVQLVESGGGLVQAGGSLRLSCAASGFTFDRYTMGWYRQAPGKEWELVAVIRRGGSTYYADSVKGRFTISRDNAKNTVYLQMNSLKPEDTAVYYCNALSALAVEDGYWGQGTQVTVSS | low polyreactivity
42 | QVQLVESGGGLVQAGGSLRLSCAASGFIFYNYAMGWYRQAPGKERELVAAISASGGRTYYADSVKGRFTISRDNAKNTVYLQMHRLKPEDTAVYYCIARVKYKGYDYWGQGTQVTVSS | high polyreactivity
43 | QVQLVESGGGLVQAGGSLRLSCAASGSTFLINAMGWYRQAPGKERELVAAISRDGSTNYADSVKGRFTISRDNAKNTVYLQMNSLKPEDTAVYYCAAVPGISVGRQPGYDYDYWGQGTQVTVSS | low polyreactivity
